Numbered stars: 1 amine (or outer) side, 2 acyl side, 3 side chain; on linkers, the order of the positions; unused ones are H or OH. Bridge positions count the residues as written; N and C are the ends. * marks the point of attachment. C20 diacid = O=C(O)CCCCCCCCCCCCCCCCCCC(=O)*; γGlu = O=C(O)[C@H](CCC(=O)[*:2])N[*:1]
T1: human calcitonin receptor (human, UniProt P30988 25-474)
T1 construct: whole, on cells; Assay used cell membranes of the transfected BHK cells; also called hCTR; hCT
T1 sequence (looked up): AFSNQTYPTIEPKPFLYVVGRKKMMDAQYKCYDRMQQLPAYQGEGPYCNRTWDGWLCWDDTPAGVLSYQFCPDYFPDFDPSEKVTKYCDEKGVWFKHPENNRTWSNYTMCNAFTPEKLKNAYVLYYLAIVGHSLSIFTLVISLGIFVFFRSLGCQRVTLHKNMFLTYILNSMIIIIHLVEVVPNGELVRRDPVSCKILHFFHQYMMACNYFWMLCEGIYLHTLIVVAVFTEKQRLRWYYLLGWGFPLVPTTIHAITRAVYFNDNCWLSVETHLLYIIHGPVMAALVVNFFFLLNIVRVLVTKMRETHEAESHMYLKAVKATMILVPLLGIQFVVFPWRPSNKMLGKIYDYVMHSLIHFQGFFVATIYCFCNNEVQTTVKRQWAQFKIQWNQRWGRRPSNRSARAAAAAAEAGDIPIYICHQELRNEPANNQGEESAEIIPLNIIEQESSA

B1: N^α1-[(4S)-4-carboxy-4-(19-carboxynonadecanoylamino)butanoyl]-[Glu14,Arg17,Pro21,Pro26]-h-amylin (peptide)
peptide: {C20 diacid-γGlu}-KCNTATCATQRLAEFLRHSSPNFGAPLSSTNVGSNTY-NH2
modifications: disulfide 2-7
SMILES: CC(C)C[C@H](NC(=O)[C@H](CCCNC(=N)N)NC(=O)[C@H](CCC(N)=O)NC(=O)[C@@H](NC(=O)[C@H](C)NC(=O)[C@@H]1CSSC[C@H](NC(=O)[C@H](CCCCN)NC(=O)CC[C@H](NC(=O)CCCCCCCCCCCCCCCCCCC(=O)O)C(=O)O)C(=O)N[C@@H](CC(N)=O)C(=O)N[C@@H]([C@@H](C)O)C(=O)N[C@@H](C)C(=O)N[C@@H]([C@@H](C)O)C(=O)N1)[C@@H](C)O)C(=O)N[C@@H](C)C(=O)N[C@@H](CCC(=O)O)C(=O)N[C@@H](Cc1ccccc1)C(=O)N[C@@H](CC(C)C)C(=O)N[C@@H](CCCNC(=N)N)C(=O)N[C@@H](Cc1c[nH]cn1)C(=O)N[C@@H](CO)C(=O)N[C@@H](CO)C(=O)N1CCC[C@H]1C(=O)N[C@@H](CC(N)=O)C(=O)N[C@@H](Cc1ccccc1)C(=O)NCC(=O)N[C@@H](C)C(=O)N1CCC[C@H]1C(=O)N[C@@H](CC(C)C)C(=O)N[C@@H](CO)C(=O)N[C@@H](CO)C(=O)N[C@H](C(=O)N[C@@H](CC(N)=O)C(=O)N[C@H](C(=O)NCC(=O)N[C@@H](CO)C(=O)N[C@@H](CC(N)=O)C(=O)N[C@H](C(=O)N[C@@H](Cc1ccc(O)cc1)C(N)=O)[C@@H](C)O)C(C)C)[C@@H](C)O
notes: Synthetic analogue; also called compound 7
B2: N^α1-[(4S)-4-carboxy-4-(19-carboxynonadecanoylamino)butanoyl]-[Glu14,Arg17,Pro21,Pro27,Pro34]-h-amylin (peptide)
peptide: {C20 diacid-γGlu}-KCNTATCATQRLAEFLRHSSPNFGAIPSSTNVGPNTY-NH2
modifications: disulfide 2-7
SMILES: CC[C@H](C)[C@H](NC(=O)[C@H](C)NC(=O)CNC(=O)[C@H](Cc1ccccc1)NC(=O)[C@H](CC(N)=O)NC(=O)[C@@H]1CCCN1C(=O)[C@H](CO)NC(=O)[C@H](CO)NC(=O)[C@H](Cc1c[nH]cn1)NC(=O)[C@H](CCCNC(=N)N)NC(=O)[C@H](CC(C)C)NC(=O)[C@H](Cc1ccccc1)NC(=O)[C@H](CCC(=O)O)NC(=O)[C@H](C)NC(=O)[C@H](CC(C)C)NC(=O)[C@H](CCCNC(=N)N)NC(=O)[C@H](CCC(N)=O)NC(=O)[C@@H](NC(=O)[C@H](C)NC(=O)[C@@H]1CSSC[C@H](NC(=O)[C@H](CCCCN)NC(=O)CC[C@H](NC(=O)CCCCCCCCCCCCCCCCCCC(=O)O)C(=O)O)C(=O)N[C@@H](CC(N)=O)C(=O)N[C@@H]([C@@H](C)O)C(=O)N[C@@H](C)C(=O)N[C@@H]([C@@H](C)O)C(=O)N1)[C@@H](C)O)C(=O)N1CCC[C@H]1C(=O)N[C@@H](CO)C(=O)N[C@@H](CO)C(=O)N[C@H](C(=O)N[C@@H](CC(N)=O)C(=O)N[C@H](C(=O)NCC(=O)N1CCC[C@H]1C(=O)N[C@@H](CC(N)=O)C(=O)N[C@H](C(=O)N[C@@H](Cc1ccc(O)cc1)C(N)=O)[C@@H](C)O)C(C)C)[C@@H](C)O
notes: Synthetic analogue; also called compound 32
B3: N^α1-[(4S)-4-carboxy-4-(19-carboxynonadecanoylamino)butanoyl]-[Glu14,Arg17,Pro21,Pro27,His34]-h-amylin (peptide)
peptide: {C20 diacid-γGlu}-KCNTATCATQRLAEFLRHSSPNFGAIPSSTNVGHNTY-NH2
modifications: disulfide 2-7
SMILES: CC[C@H](C)[C@H](NC(=O)[C@H](C)NC(=O)CNC(=O)[C@H](Cc1ccccc1)NC(=O)[C@H](CC(N)=O)NC(=O)[C@@H]1CCCN1C(=O)[C@H](CO)NC(=O)[C@H](CO)NC(=O)[C@H](Cc1c[nH]cn1)NC(=O)[C@H](CCCNC(=N)N)NC(=O)[C@H](CC(C)C)NC(=O)[C@H](Cc1ccccc1)NC(=O)[C@H](CCC(=O)O)NC(=O)[C@H](C)NC(=O)[C@H](CC(C)C)NC(=O)[C@H](CCCNC(=N)N)NC(=O)[C@H](CCC(N)=O)NC(=O)[C@@H](NC(=O)[C@H](C)NC(=O)[C@@H]1CSSC[C@H](NC(=O)[C@H](CCCCN)NC(=O)CC[C@H](NC(=O)CCCCCCCCCCCCCCCCCCC(=O)O)C(=O)O)C(=O)N[C@@H](CC(N)=O)C(=O)N[C@@H]([C@@H](C)O)C(=O)N[C@@H](C)C(=O)N[C@@H]([C@@H](C)O)C(=O)N1)[C@@H](C)O)C(=O)N1CCC[C@H]1C(=O)N[C@@H](CO)C(=O)N[C@@H](CO)C(=O)N[C@H](C(=O)N[C@@H](CC(N)=O)C(=O)N[C@H](C(=O)NCC(=O)N[C@@H](Cc1c[nH]cn1)C(=O)N[C@@H](CC(N)=O)C(=O)N[C@H](C(=O)N[C@@H](Cc1ccc(O)cc1)C(N)=O)[C@@H](C)O)C(C)C)[C@@H](C)O
notes: Synthetic analogue; also called compound 17
B4: N^α1-[(4S)-4-carboxy-4-(19-carboxynonadecanoylamino)butanoyl]-[Glu14,Arg17,Pro21,Pro27,Arg35]-h-amylin (peptide)
peptide: {C20 diacid-γGlu}-KCNTATCATQRLAEFLRHSSPNFGAIPSSTNVGSRTY-NH2
modifications: disulfide 2-7
SMILES: CC[C@H](C)[C@H](NC(=O)[C@H](C)NC(=O)CNC(=O)[C@H](Cc1ccccc1)NC(=O)[C@H](CC(N)=O)NC(=O)[C@@H]1CCCN1C(=O)[C@H](CO)NC(=O)[C@H](CO)NC(=O)[C@H](Cc1c[nH]cn1)NC(=O)[C@H](CCCNC(=N)N)NC(=O)[C@H](CC(C)C)NC(=O)[C@H](Cc1ccccc1)NC(=O)[C@H](CCC(=O)O)NC(=O)[C@H](C)NC(=O)[C@H](CC(C)C)NC(=O)[C@H](CCCNC(=N)N)NC(=O)[C@H](CCC(N)=O)NC(=O)[C@@H](NC(=O)[C@H](C)NC(=O)[C@@H]1CSSC[C@H](NC(=O)[C@H](CCCCN)NC(=O)CC[C@H](NC(=O)CCCCCCCCCCCCCCCCCCC(=O)O)C(=O)O)C(=O)N[C@@H](CC(N)=O)C(=O)N[C@@H]([C@@H](C)O)C(=O)N[C@@H](C)C(=O)N[C@@H]([C@@H](C)O)C(=O)N1)[C@@H](C)O)C(=O)N1CCC[C@H]1C(=O)N[C@@H](CO)C(=O)N[C@@H](CO)C(=O)N[C@H](C(=O)N[C@@H](CC(N)=O)C(=O)N[C@H](C(=O)NCC(=O)N[C@@H](CO)C(=O)N[C@@H](CCCNC(=N)N)C(=O)N[C@H](C(=O)N[C@@H](Cc1ccc(O)cc1)C(N)=O)[C@@H](C)O)C(C)C)[C@@H](C)O
notes: Synthetic analogue; also called compound 16
B5: N^α1-[(4S)-4-carboxy-4-(19-carboxynonadecanoylamino)butanoyl]-[Glu14,Arg17,Pro21,Pro27,Pro31]-h-amylin (peptide)
peptide: {C20 diacid-γGlu}-KCNTATCATQRLAEFLRHSSPNFGAIPSSTPVGSNTY-NH2
modifications: disulfide 2-7
SMILES: CC[C@H](C)[C@H](NC(=O)[C@H](C)NC(=O)CNC(=O)[C@H](Cc1ccccc1)NC(=O)[C@H](CC(N)=O)NC(=O)[C@@H]1CCCN1C(=O)[C@H](CO)NC(=O)[C@H](CO)NC(=O)[C@H](Cc1c[nH]cn1)NC(=O)[C@H](CCCNC(=N)N)NC(=O)[C@H](CC(C)C)NC(=O)[C@H](Cc1ccccc1)NC(=O)[C@H](CCC(=O)O)NC(=O)[C@H](C)NC(=O)[C@H](CC(C)C)NC(=O)[C@H](CCCNC(=N)N)NC(=O)[C@H](CCC(N)=O)NC(=O)[C@@H](NC(=O)[C@H](C)NC(=O)[C@@H]1CSSC[C@H](NC(=O)[C@H](CCCCN)NC(=O)CC[C@H](NC(=O)CCCCCCCCCCCCCCCCCCC(=O)O)C(=O)O)C(=O)N[C@@H](CC(N)=O)C(=O)N[C@@H]([C@@H](C)O)C(=O)N[C@@H](C)C(=O)N[C@@H]([C@@H](C)O)C(=O)N1)[C@@H](C)O)C(=O)N1CCC[C@H]1C(=O)N[C@@H](CO)C(=O)N[C@@H](CO)C(=O)N[C@H](C(=O)N1CCC[C@H]1C(=O)N[C@H](C(=O)NCC(=O)N[C@@H](CO)C(=O)N[C@@H](CC(N)=O)C(=O)N[C@H](C(=O)N[C@@H](Cc1ccc(O)cc1)C(N)=O)[C@@H](C)O)C(C)C)[C@@H](C)O
notes: Synthetic analogue; also called compound 31

These binders were tested against T1, human calcitonin receptor (assay: SPA radioligand competition (125I-calcitonin), membranes of BHK cells with human calcitonin receptor).
In short: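 BHK hCTR membranes 35 ng/μL + SPA beads 0.05 mg/well; buffer 50 mM Hepes pH 7.4, 1 mM CaCl2, 5 mM MgCl₂, 0.1% OA, 0.02% Tween20. 120 min, 25° C., shaking. Scintillation count; IC50 by one-site binding competition.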
For B1, the IC50 was 11.1 nM. In the case of B2, the IC50 is reported as 1.09 nM. With B3 the IC50 was 10.9 nM. With B4 the IC50 was 17.1 nM. Work on B5 yielded an IC50 of 3.26 nM.

Each binder was assayed against T1, human calcitonin receptor (assay: ratio IC50 hCTR / IC50 hAmylin-R of the two SPA competition assays; reference: human amylin receptor).
Procedure: The resulting pellet was resuspended, homogenized and centrifuged (20.000 rpm, 15 min) in a buffer containing 20 mM Na-HEPES and 0.1 mM EDTA (pH 7.4, buffer 2). The resulting pellet was resuspended in buffer 2 and protein concentration was measured (BCA protein Assay, Pierce). The homogenate was kept cold during the whole procedure. The membranes were kept at −80° C. until use. The assay was performed in a 384 well Optiplate (PerkinElmer) in a total volume of 40 ul. Membranes were mixed with SPA beads. Final concentration of membranes 35 ng/μL final and SPA beads was 0.05 mg/well. Test-compounds were dissolved in DMSO and further diluted in assay buffer (50 mM Hepes, pH 7.4, 1 mM CaCl2, 5 mM MgCl₂, 0.1% OA and 0.02% Tween20). […] The final mixture was incubated with shaking at 400 rpm for 120 min at 25° C. prior to centrifugation (1500 rpm, 10 min). Samples were analyzed on TopCounter™ (Packard). The IC₅₀ was calculated using (one site binding competition analysis) GraphPad Prism5 as a measure of receptor affinity.
Membranes were prepared in the following way; the cells were rinsed with PBS and incubated with Versene for approximately 5 min before harvesting. The cells were flushed with PBS and the cell-suspension was centrifuged for 5 min at 1000 rpm. Cells were homogenized (Ultrathurrax) in a buffer containing 20 mM Na-HEPES and 10 mM EDTA (pH 7.4) and centrifuged at 20.000 rpm for 15 min. The resulting pellet was resuspended, homogenized and centrifuged (20.000 rpm, 15 min) in a buffer containing 20 mM Na-HEPES and 0.1 mM EDTA (pH 7.4, buffer 2). The resulting pellet was resuspended in buffer 2 and protein concentration was measured (BCA protein Assay, Pierce). The homogenate was kept cold during the whole procedure. The membranes were kept at −80° C. until use. Assay was performed in a 384 well Optiplate (PerkinElmer) in a total volume of 40 ul. Membranes were mixed with SPA beads.
For B1, the “Ratio hCT/hAmylin binding” value was 16.5. In the case of B2, the “Ratio hCT/hAmylin binding” value is reported as 10.9. B3 was tested, and the “Ratio hCT/hAmylin binding” value was 12.5. B4 was tested, and the “Ratio hCT/hAmylin binding” value was 19.1. In the case of B5, the “Ratio hCT/hAmylin binding” value is reported as 16.

Source: US20140087995A1 (published 2014)
